{"source": "paper PMC2905415", "about": "“Characterization of a Clp Protease Gene Regulator and the Reaeration Response in Mycobacterium tuberculosis”", "binders": {"B1": {"name": "clpC1 promoter probe (dsDNA)", "DNA 1": "CGAGCGGCCATCGGTTCGCCGCCAGCGAACGCGGCAAAGTAC", "DNA 2": "GTACTTTGCCGCGTTCGCTGGCGGCGAACCGATGGCCGCTCG"}, "B2": {"name": "clpC1 promoter unlabeled competitor (dsDNA)", "DNA 1": "B1 DNA 1", "DNA 2": "B1 DNA 2"}}, "key": {"[1]": {"target": "T1, Rv2745-S (ClgR, stabilized/soluble form) (Mycobacterium tuberculosis, UniProt P9WMH7 1-112, V111D;A112D)", "T1 sequence": "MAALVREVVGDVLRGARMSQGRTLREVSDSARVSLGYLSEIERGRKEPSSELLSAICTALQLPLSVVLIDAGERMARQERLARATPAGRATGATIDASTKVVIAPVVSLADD", "assay": "EMSA", "settings": "protein: recombinant; tags: NusA fusion and His tag (pET50b), removed with HRV3C protease; chain copies: 2; label: 5' Cy5.5; blunt"}, "[2]": {"target": "T2, Rv2745-S L24SR25D (DBL) (Mycobacterium tuberculosis, UniProt P9WMH7 1-112, L24S;R25D;V111D;A112D)", "T2 sequence": "T1 sequence with L24S, R25D", "assay": "EMSA", "settings": "protein: recombinant; chain copies: 2; label: 5' Cy5.5; blunt"}, "[3]": {"target": "T1, Rv2745-S (ClgR, stabilized/soluble form)", "assay": "competition", "settings": "protein: recombinant; tags: NusA fusion and His tag (pET50b), removed with HRV3C protease; chain copies: 2; blunt"}}, "note": "Where a chain is given by its changes, count along the chain named."}
{"binder": "B1", "values": [{"measurement": "binding result", "setting": "[1]", "value": "binds"}, {"measurement": "binding result", "setting": "[2]", "value": "no binding"}]}
{"binder": "B2", "values": [{"measurement": "binding result", "setting": "[3]", "value": "binds"}]}
